Assay: yeast display, Sf9 membrane polyspecificity reagent, FACS + sequencing; frameworks hold sequencing errors
In short: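 Nanobodies came from a synthetic yeast display library in Saccharomyces cerevisiae BJ5465, induced with galactose for 36–48 hours and stained for 1 hour at 4 °C with 10% biotinylated, detergent-solubilized Sf9 membrane reagent. Cells were enriched on streptavidin microbeads and then FACS-sorted, with low and high (top ~1%) gates set on anti-HA fluorescence for expression and streptavidin fluorescence for reagent binding. Each polyreactivity label reflects the gate a clone came from. Genes were amplified by colony PCR, sequenced by MiSeq 2 × 250 and filtered by CDR length.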

Row | Sequence | polyreactivity (PSR sort gate)
1 | QVQLVESGGGLVQAGGSLRLSCADSGSTFPYYTMGWYRQAPGKEREFVAAISRSTGRTSYADSVKGRFTISRDNAKNTVYLQMNSVKPEDSAVYDCAVRWYYYRDDTIYVLGRYDYWGQGTQVSVSS | high polyreactivity
2 | QVQLVESGGGLVQAGGSLRLSCAASGSIFVNYAMGWYRQAPGKERELVAAISTGGGRTFYADSVKGRFTISRDNAKNTVYLQMNSLKPEDTAVYYCNKLGRPEYDYWGQGTQVTVSS | high polyreactivity
3 | QVQLVESGGGLVQAGGSLRLSCAASGRTFAPYTMGWYRQAPGKERELVAVITRRDGRTYYADSVKGRFTISRDNAKNTVYLQMNSLKPEDTAVYYCCFFPADWYRPVRDLRTDSDYWGQGTQVTVSS | low polyreactivity
4 | QVQLVESGGGLVQAGGSLRLSCAASGSIFYYYAMGWYRQAPGKERELVARITFSGGDTYYADSVKGRFTISRDNAKNTVYLQMNSLKPEDSAVYYCAAYCSYFFAWLDSYRDDYDYWGQGTQVTVSS | low polyreactivity
5 | QVQLVESGGGLVQAGGSLRLSCAASGFIFSQYAMGWYRQAPGTERELVAVISKSSGSTYYADSVKGRFTISCDNAKNTVYLQMNSLKPEDTAVYYCNRRYYYRTYDYWGQGTQVTVSS | high polyreactivity
6 | QVQHVESGGGLVQAGGSLRLSCAASGRTFDYYAMGWYRQAPGKERELVASIRSSGRTTYADSVKGRFTISRDNAKNTDYLQMNSRKPEDTAVYYCAAQWPGWWGYDYWGQGTQVTVSS | low polyreactivity
7 | QVQLVESGGGLVQAGGSLRLSCAASGNIFGYYAMGWYRQAPGKERELVAAIRTRGGRTYYADSVKGRFTISRDNAKTTVYLQMNSLKPEDTAVYYGAARSIAGFWRYDYWGQGTQVTVSS | high polyreactivity
8 | QVQLVESGGGLVQAGGSLRLSSAASGRMFHFNAMGWYRQARGKERELVARITFSGGSTYYADSVKGRFTISRDNAKNTVYLQMNSLKPEDTAVYYCAVDAPPIFYEGGDYWGQGTQVTVSS | low polyreactivity
9 | QVQLVESGGGLVQAGGSLRLSCAASGRTFRLNAMGWYRQAPGKERELVAAITSSGGSTYYADSVKGRFTISRDNAKNTVYLQLNSLKPEDTAVYYCARRQGYGVRSIRWGDYWGQGTQVTVSS | high polyreactivity
10 | QVQLVESGGGLVQAGGSLRLSLAASGSIFSYYAMGWYRQAPWKERELVAAISYSGSDTYYADSVKGRFTISRDNAKNTVYLQMNSLNPEDTAVYYCAAEDPSYSYDYWGQGTQVTVSS | low polyreactivity
11 | QVQLVESGGGLVQAGGSLRLSCAASGRTFAYYAMGWYRQAPGKERELVAAISTNGGTYYADSVKGRFTISRDNAKNTVYFQLNSLKPEDTAVYSCAAYTSYDVDYWGQGTQVTVSS | low polyreactivity
12 | QVQLVESGGGLVQAGGSLRLSCAASGRTFRRYVMGWYRQAPGKERELVAAISYSGATTYYADSVKGRFTISRDNAKNTVYLQMNSLKPEDTAVYYCAATAPGDRYFWGQGTQVTVSS | high polyreactivity
13 | QVQLEESGGGLVQAGGSLRLSCAASGFIFPHYAMGWYLQAPGKERELVAAISKSGDSTYYADSVKGRFTISRDNAKNTVYLQMNSLKPEDTAVYYCARRGRSLRWKYDYWGQGTQVTVSS | low polyreactivity
14 | QVQLVESGGGLVQAGGSLRLSCAASGSTLDVYAMGWYRQAPGKERELVAAITVRATSTYYADSVKGRFTISRDNAKNTVYLQMNSQKPEDTAVYYCDARYEFFYKAFDVDSWGQGTQVTVSS | low polyreactivity
15 | QVQLVESGGGLVQAGGSLRLICAASGRIFGTNAKGWYRQAPGKERELVADITSGGSTNYADSVKGRFTISRDNAKNTVYLQMNSLKPEDTAVYYCAADVIGDLRWYRDEYWGQGTQVTVSS | low polyreactivity
16 | QVQLVESGGGLVQAAGSLRLSCAASGFIFQAYAMGWYRQAPGKERELVAAISSSGGSTYYADSVKGRFTISRDNAKYTVYLKRNILKPEDTAVYYCAARSRRVSLLSESYGYWGQGTQVTVSS | high polyreactivity
17 | QGQLVESGGGLVQAGGSLRLSCAASGFTFAGYARGWYRQAPGKERELVAAINRGGSTYYADSVKGRFTISRDNAKNTVYLQMNSLTPEDTAVYYCAARQEPGWYPDVWWEYDYWGQGTQVTVSS | low polyreactivity
18 | QVQLVESGGGLVQAGGSLRLSCAASGFTFSYNSMGRYRQATAKERELVARISRTGGSTNYADSVKGRFTISRDNAKNTVYLQMNSLKPEDTAVYYCATGYRYTYGSWGQGTQVTVSS | high polyreactivity
19 | QVQLVESGGGLVQAGGSLRLSCAASGITLATNAMGLYRQAPGKERELVAAINSGGITKYADSVKGRFTISRDNEKNTVYLQMNSLKPEDTAVYYCAADLEPRTNAPGLPTPDGYYWGQGTQVTVSS | low polyreactivity
20 | QVQLVESGGGLVQAGGILRLICAASGITFVSYGMVWYRQAPRKERELVAAITRSGGSTYYADSVKGRFTISRDNAKNTVYLQMNSLKPDDTAVYYCNARTRYASKGGGARWDSYGYWGQGTQVTVSS | high polyreactivity
21 | QVQLVESGGGLVQAGGSLRLSCAASGRILHGYAMGWYRQAPGKERELVAAITSSGGRTYYADSVKGRFTISRDNAKNTVYLQMNSLKPEDTAVYYCAADRPAYRTGDSKYDYWGQGTQVTVSS | low polyreactivity
22 | QVQLVESGGGLVQAGGSLRLSCAASGRTSLNYAMGWYRQAPGKERELVAAITLRGGNTYYADSVKGRFTISRDNAKNTVYLQMNSLKPEDTAVYYCAAYTKEISIYYPYEYWGQGTQVTVSS | high polyreactivity

Row | Sequence | polyreactivity (PSR sort gate)
23 | QVQLEESGGGLVQAGGSLRLSCAASGRIFTRYALGWYRQAPGKERELVAAITGSGGSTYYADSVKGRFTISRDNAKNTVYLQMNSRKPEDTAVYYCATDFYCYRSYNYWGQGTQVTVSS | high polyreactivity
24 | QVQLVESGGGLVQAGGSLRLSCAASGRTFSRYAIGWYRQAPGKERDLVAAITRTGGSTYYADSVKGRFTISRDNAKNTVYLQMNSLKPEDTAVYYCAAAYPGVWYDYNYWGQGTQVTVSS | high polyreactivity
25 | QVQLVESGGGLVQAGGSLRLSCAASGSTFSNYAMGWYRQAPGKERELVAAISVRGGSTYYADSVKGRFTISRDNAKNTVYLQMNSLKPEDTAVYYCAKYYYYLRSARKYDYWGQGTQVTVSS | high polyreactivity
26 | QDQLVDSGGGLVQAGASLRISSATSGRILWEYAMGSYRQAPGKERQLVAAITISDGSTYYADSVKGRFTISRDNAKNTVYLQMNSLNPEDTEVYYCAADSYDYTPAYLFSYKYYYWGQGTQVTVSS | low polyreactivity
27 | QVQLVESGGGLVQAGGSLRLSCAASGYIFWENAMGWYRQAPGKERELVAAITVSGGGTYYADSVKGRFTISRDNAKNTVYLQMNSLEPEDTAVYSCAADEDNPWLWFYYCGQGTQVTVSS | low polyreactivity
28 | QVQLVESGGGLVQAGGSLRLSCAASGSIFDSNAKGWYRQAPGKERELVAAITGSGSTNYADSVKGRFTFSRDNAKNTVYLQMNSLKPEDTAVYYCNAQAPYTEFDYWGQGTQVTVSS | low polyreactivity
29 | QVQLVESGGGLVQAGGSLRLSGAASGSTFRGYAMGWYRQAPGKERELFAAMTYISDSTYYADSVKGRFTISRDNAKNTVYLQMNSLKPEDTAVYYCNAYYDGDWRYTSQETGDHWGQGTQVTVSS | low polyreactivity
30 | QVQLVESGGGLVQAGGSLRLSCAASGSTFISYDMGWYRQAPGKERELVADITSVGGSTYYADSVKGRFTISRDNAKNTVYLQMNSLKPEDTAVYYCNAEAEWEEEGGSWGQGTQVTVSS | low polyreactivity
31 | QVQLVESGGGLVQAGGSLRLSCAASGRTLYFNAMGWYRQAAGKERELVASITNGGRTNYADSVKGRFTISRDNAKNTVYLQMNSLKPEDTAVYYCAKRTLCSRGVNYYWGQGTQVTVSS | high polyreactivity
32 | QVQLVESGGGLVQAGGSLRLSCAASGRTFHSYAMGWYRQAPGKEWELVAGISWGGTRTTYADSVKGRFTISRDNSKNTVYLQMNSLKPEDTAVYYCNAVYYALGRSPPDYGYWGQGTQVTVSS | low polyreactivity
33 | QVQLVESGGGLVQAGGSLRLSCAASGLIFTTYDMGWYRQAPGKERELVAAISASSDTTYYADSVKGRFTISRDNAKNTVYLQMNSLKPEDTAVYYCAADRFDFPTATGSNYWGQGTQVTVSS | low polyreactivity
34 | QVQLVESGGGLVQAGGSLRLSCAASGITFYFNTMGWYRQAPGKERELVASISGGSSTYYADSVKGRFTISRDNAKYTVYLQMNSLKPEDTAVYYCNAQGSLFRGWFDYDYWGQGTQVTVSS | low polyreactivity
35 | QVQLVESGGGLVQAGGSLRLSCAASGSIFQSNAMGWYRQAPAKESELVAAISSSGGRTYYADSVKGRFTISRDNAKNTVYFQMNSLKPEDTAVYYCAALGYPDGGWGLGTQVTVSS | low polyreactivity
36 | QVQLVESGGGLVQAGGSLRLSCAASGRTFDDYAMGGYSQAPGKERELVAAISWSGSSTYYADSVKGRFTISRDNAKNTVYLQMNSLKPEDTAVYYCAADSIRTLLTGNTVYIWYGYWGQGNQVTVSS | low polyreactivity
37 | QVQLVESGGGLVQAGGSLRLSCAASGSTFWYYGMGWYRQAPGKERELVARINWSTGRTYYADSVKGRFTISRDNAKNTVYLQMNSLKPEDTAVYYCNALNPYKGQEAHYDYWGQGTQVTVSS | high polyreactivity
38 | QVQLVDSGGGLVQAGGSLSLSCAASGSIFNVYGMGWYRQAPGKERELVARINSRGGITYYADSVKGRFTISRDNAKNTVYLQMNSLKPEDTAVYYCATDTQDLQGYSWFDYWGQGTQVTVSS | high polyreactivity
39 | QVQLVESGGGLVQAGGSLRLTCAASGSIFWGNAMGWYRQAPGKERELVATISWSAGSTYYADSVKGRFTISRDNAKNTVYLQMNSLKPEDTGVYYCATDFRHSTLYYYWGQRTQVTVSS | low polyreactivity
40 | QVQLVESGGGLVQAGGSLRLSCAASGRTFYYNAMGWDRQAPGKESELVARITYRSGRTNYADSVKGRFTISRDNAKNTVYLQMNSLKPEDTAVYYCAAAWWCGAGRTRYEYWGQGTQVTVSS | high polyreactivity
41 | QVQREESGGGLVQAGGRLRLTCAASGSIFGYYVMGWYRQAPGKERELVAAITRSGSTYYADSVKGRFTISRDNAKNTVYLQMNSLKPEDTAVYYCYADVYWPGTPYTHDYWGQGTQVTVSS | low polyreactivity
42 | QVQLVESGGGLVQAGCSLRLSCAASGRIFGQYAMGWYRQAPGKEREFVAGISTTGGSTYYADSVKGRFTISRDNAKNTVYLQMNSLKPEDTAVYYFAVRINWSRWYHYYTYNYWGQGTQVTVSS | high polyreactivity
43 | QVQLVDSGGGLVQAGGSLRLSCAASRNAMGWYRQAPGKERELVGAISFRGGSTYYADSVKGRFTISRDNAKNTVYLQMNSLKPEDTAVYYCAKVQHHDYEGRGFPDAADGYWGQGTQVTVSS | low polyreactivity

— the nanobody polyreactivity screen of Harvey et al. (2022)
